The target of test [1] is streptavidin (UniProt P22629). In words: release from M280 Streptavidin Dynabeads by 5 mM biotin or bis-biotin, fluorescence of supernatant.
Test [2] deals with streptavidin (UniProt P22629). Briefly: BLI (Octet), streptavidin biosensor tips, conjugate in solution, 25 C.
In test [3] the target is streptavidin (UniProt P22629). Briefly: release from streptavidin beads by biotin.

Sequence of streptavidin (P22629 37-163 limits assumed): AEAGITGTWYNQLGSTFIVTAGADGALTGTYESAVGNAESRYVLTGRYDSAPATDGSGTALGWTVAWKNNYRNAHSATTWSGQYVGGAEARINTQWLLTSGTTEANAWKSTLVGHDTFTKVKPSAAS

For “18-Ab (goat anti-mouse IgG linked to biotin derivative 18) (antibody)”, in the test with streptavidin [1], the Detachment came out at 85%.

Consider Biotin-Ab (antibody), for which, in the test with streptavidin [2], the Kd (usually the constant that tells how readily two partners part at equilibrium) was 0.00595 pM; the dissociation rate constant (koff) (commonly the first-order rate constant of dissociation) stood at 1.43e-07 s⁻¹; the on-rate (kon) – broadly, a measure of how fast the partners come together – was determined as 2.41e+07 M⁻¹ s⁻¹. The same substance came in with a Detach. with streptavidin [3] of 0%.

Substance “DSB-X-Ab (goat anti-mouse IgG linked to DSB-X) (antibody)” registered a Detachment with streptavidin [1] of 16%.

These data come from patent US20170174700A1.
